Here are results for 19 sequences from the NTF2 design screens of Basanta et al. (2020).

The data set is described as follows: protease stability score; higher = more stable; yeast display proteolysis, trypsin and chymotrypsin.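 Also: relative to predicted unfolded state with 0 unfolded-like and 1 meaning tenfold more protease.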
On to “SEDEKVALEMLEWLSTARRTGDEHVMRELIDPHTRLHYGDKIYIGRDHVIELLLQLRVHIHHVELTHFESVGDKIKLHTEEDGHIDIDGRHHRVIIHTTMYARKFDGQWHTEEIRIH”, for which the protease stability score was 1.93.
“DETFEDAHKLFKKFWEDMRTGDESEIEKLLDPNDKVHQGEKQTHGREEASRTHQEDIRRVDVFERVHIDHIETQGDFAIIDSTWIIHFDGKRFTRKVIIFLVKINGQWKFHSITMR” showed a protease stability score of 0.71.
With “DETEEAVLSVARLWLHLFLTGDEERTQKMMDPNARVEIDGKEVVGREKVTDMIRHKIEQIRIQDHKEKDIKVIGDKVHLHVQFHGEVDGKEINTLILINVMVVDGRIKHVEIRVS”, the protease stability score was 0.77.
Sequence “SEIDRLSEELARLFLELVITGDFKTLSHLADPTVKSDINGVDLHGREELYRWVEEFYNELRVSWVLDSIEVQGEKAYVKGKLESRVDGQRHTDQYEIILIIVNGRFKEIIVKRR” showed a protease stability score of 1.5.
Under “SEDEEIVKKMSKEELEFWRTGNEHELSKLFDPDVLLFVGEKIFHGREVFKHFKERVDHFHEFRDKHIQVIDGRIHIDSEVNSRFNGRQLSEDVRIQALKFDGRWHYKSIHML” stands 0.336; under “DEEREKVIRFLERFQESSRTGDEETLHRLADPNVKLTVDGRELHGREVMVRYAIEWRIEDVEPKRYTEQGDKLILHVRIHTTIGDKHEVREVDLFVRKIDGRWIMEEFRVR”, 0.96; under “DDEERANRELLELLIHSYRTGDWKLWHELVDPHVRTSLHQGEFEMKSIGRHYVRDIMTYMGVDHVELRHLEIQGDKLIMHLELDVNGRRLHVILFLSKINGVWILREEEIRFI”, 1.3.
Under “DELFKNMHTMAEIFLKLLLTGDEDLIRHYADPNVRLEWIFNGVRFEHVGRESFMEFLHRWLEELRLHDLIVHEVRFQGDKYHMDTRERVRVDGVELDRKTEQMYVVVDGRLHSVHRIIN” stands 0.678; under “DEEEETIRKYIEMMIRLWETGDEKSMLDLFDPDVRTLVNGQHLHGRHALEILLRRIDVRRHVHLHHIDLQGNKVEIDSRLEGTVDGKRDDIELTHHMVKVDGQWVIHNVEVR”, 1.02.
For the sequence “DHDTRRHEKILSDYAHALHTGNFHMLKELMDPHVRLEIGDKEFVGREEVMRYLQHIRSYIHRLRIDHIEIQGDKIHSDVREHLHFEIGDKDHNHDTRVEQLWLKVNGRWLLQQIVVR”, the protease stability score stood at 2.16.
“EESEKSAKLLLDWLFRHLITGNEETFQHFADPNARVDQGEKDSHGMEWVRLVLEEIRIDNMHVRDFRIFEGRLIIDTEIRIKYNGVEMTIKVTVVSEKVNGKWRMKSMHVN” gave a protease stability score of 1.04.
The sequence “TESKQEEHLALEVIEHAYRTGDEHELHELLDPHTRIFIGDKTHHGREFYLRVLKRERDELGVDKIEIIIRRVEIQGDKMIMDGELRVNGKTVRVHLILRKYDGRWLIKHITHE” yielded a protease stability score of 1.47.
As for “SEHDKFTREMSEMLIEALLTGDWRIFEELADPNMRFHQGEFHFHGREEVSHRMLELVDLLGADHYDVREIRFQGDKIHTHLEYYIGDKLFRVDLHAEKVNGKWHLTIVHVDSH”, the protease stability score was found to be 2.03.
“SELERHAKEIAKIFSEVESTGDEDRMWELVDPDVRLHVGDKEFHGMEWVITLIREHLRHIRLKHVEITHIRVIDGRVDVDTRIHGIINGRELVTKSRIIIDKINGRWLVSSLKYE” displayed a protease stability score of 1.15.
“DEWEESHKLVSKMIADTDETGDERIKRRLLDPHARLIVDGREYHGREHMDKIWKYFGLDRIHVEVRRMHVYGDKVSLHVHSIYNGREVEVHIIIHKVDGRWHLHSVDIQ” came in with a protease stability score of 0.596.
As for “SEEEEQSRKIFRLLYKVIETGDEDIFTKLFDPHARLIYNGKEYIGWEEAVQVLRHIRIDREELSVVRINNVNGQVHIHSVSRMDGEINGVEHHTRVELNFIVIKINGRWVIHTWEIRID”, the protease stability score was 2.35.
In turn, “DEEEKLIRIFDKLLSRAMKTGDEHELFKLIDPHTRMVVNGRTFIGWELFSHVVRHWRIDHIDLEDFKVQGDYAHLDGRVDQTVNGVKIETRSIIINEKFNGRWNNSSVILH” registered a protease stability score of 0.163.
“SEEEEDRRIAVEEMLRYWHTGDEEDLNRLFDPNVRADFNGKDLVGREHMKEHYERLGYDKFDVRVKDVRVIGDKVEMDGHLRFDGVERDLHIFVIKVNGRWLVKHTEYR” returned a protease stability score of 0.904.
The sequence “DERQKELQEFAERLMRVLNTGDWEHTEQLLDPHVRVHFNGRDFHGWEEIVRFWTELRNQFDHFELRVDTVRIQGDKVENDGNAIFRIDGKELRHRITIHVFLINGKIKRVNVEIR” yielded a protease stability score of 1.68.
